Test results from patent US20210388087A1 (Chugai, published 2021).

B1: GPC3 ERY22-dBBDu_186/L096 (bispecific antibody, human IgG1, kappa, L234A L235A, N297A)
heavy 1: DIVMTQSPLSLPVTPGEPASISCRSSQSLVHSNRNTYLHWYQQKPGQAPRLLIYKVSNRFSGVPDRFSGSGSGTDFTLKISRVEAEDVGVYYCSQNTHVPPTFGQGTKLEIKSSASTKGPSVFPLAPSSKSTSGGTAALGCLVKDYFPEPVTVSWNSGALTSGVHTFPAVLQSSGLYSLSSVVTVPSSSLGTQTYICNVNHKPSNTKVDKKVEPKSCDKTHTCPPCPAPEAAGGPSVFLFPPKPKDTLMISRTPEVTCVVVDVSHEDPEVKFNWYVDGVEVHNAKTKPREEQYASTYRVVSVLTVLHQDWLNGKEYKCKVSNKALPAPIEKTISKAKGQPREPQVCTLPPSRDELTKNQVSLWCLVKGFYPSDIAVEWESNGQPENNYKTTPPVLDSDGSFFLYSKLTVDKSRWQQGNVFSCSVMHEALHNHYTQKSLSLSPHHHHHHHH
light 1: QVQLVQSGAEVKKPGASVKVSCKASGYTFTDYEMHWIRQPPGQGLEWIGAIDPKTGDTAYSQKFKGRVTLTADKSTSTAYMELSSLTSEDTAVYYCTRFYSYTYWGQGTLVTVSSASVAAPSVFIFPPSDEQLKSGTASVVCLLNNFYPREAKVQWKVDNALQSGNSQESVTEQDSKDSTYSLSSTLTLSKADYEKHKVYACEVTHQGLSSPVTKSFNRGEC
heavy 2: QVQLVESGGGLVQPGRSLRLSCAASGFTFSNAWMHWVRQAPGKGLEWVAQIKDRSNQYATYYAPSVKGRFTISRDDSKNSIYLQMNSLKTEDTAVYYCHYVHYAQASTVLPAFGVDAWGQGTTVTVSSASTKGPSVFPLAPSSKSTSGGTAALGCLVKDYFPEPVTVSWNSGALTSGVHTFPAVLQSSGLYSLSSVVTVPSSSLGTQTYICNVNHKPSNTKVDKKVEPKSCDKTHTCPPCPAPEAAGGPSVFLFPPKPKDTLMISRTPEVTCVVVDVSHEDPEVKFNWYVDGVEVHNAKTKPREEQYASTYRVVSVLTVLHQDWLNGKEYKCKVSNKALPAPIEKTISKAKGQPREPQVYTLPPSRCELTKNQVSLSCAVKGFYPSDIAVEWESNGQPENNYKTTPPVLDSDGSFFLVSKLTVDKSRWQQGNVFSCSVMHEALHNHYTQKSLSLSPDYKDDDDK
light 2: DIVMTQSPLSLPVTPGEPASISCRTSQELVHINRYIFLHWYQQKPGQAPRLLIYKVYNRFQGVPDRFSGSGSGTDFTLKISRVEAEDVGVYYCAQGTSVPYTFGQGTKLEIKRTVAAPSVFIFPPSDEQLKSGTASVVCLLNNFYPREAKVQWKVDNALQSGNSQESVTEQDSKDSTYSLSSTLTLSKADYEKHKVYACEVTHQGLSSPVTKSFNRGEC
B2: GPC3 ERY22-dBBDu_186/L098 (bispecific antibody, human IgG1, kappa, L234A L235A, N297A)
heavy 1: DIVMTQSPLSLPVTPGEPASISCRSSQSLVHSNRNTYLHWYQQKPGQAPRLLIYKVSNRFSGVPDRFSGSGSGTDFTLKISRVEAEDVGVYYCSQNTHVPPTFGQGTKLEIKSSASTKGPSVFPLAPSSKSTSGGTAALGCLVKDYFPEPVTVSWNSGALTSGVHTFPAVLQSSGLYSLSSVVTVPSSSLGTQTYICNVNHKPSNTKVDKKVEPKSCDKTHTCPPCPAPEAAGGPSVFLFPPKPKDTLMISRTPEVTCVVVDVSHEDPEVKFNWYVDGVEVHNAKTKPREEQYASTYRVVSVLTVLHQDWLNGKEYKCKVSNKALPAPIEKTISKAKGQPREPQVCTLPPSRDELTKNQVSLWCLVKGFYPSDIAVEWESNGQPENNYKTTPPVLDSDGSFFLYSKLTVDKSRWQQGNVFSCSVMHEALHNHYTQKSLSLSPHHHHHHHH
light 1: QVQLVQSGAEVKKPGASVKVSCKASGYTFTDYEMHWIRQPPGQGLEWIGAIDPKTGDTAYSQKFKGRVTLTADKSTSTAYMELSSLTSEDTAVYYCTRFYSYTYWGQGTLVTVSSASVAAPSVFIFPPSDEQLKSGTASVVCLLNNFYPREAKVQWKVDNALQSGNSQESVTEQDSKDSTYSLSSTLTLSKADYEKHKVYACEVTHQGLSSPVTKSFNRGEC
heavy 2: QVQLVESGGGLVQPGRSLRLSCAASGFTFSNAWMHWVRQAPGKGLEWVAQIKDRSNQYATYYAPSVKGRFTISRDDSKNSIYLQMNSLKTEDTAVYYCHYVHYAQASTVLPAFGVDAWGQGTTVTVSSASTKGPSVFPLAPSSKSTSGGTAALGCLVKDYFPEPVTVSWNSGALTSGVHTFPAVLQSSGLYSLSSVVTVPSSSLGTQTYICNVNHKPSNTKVDKKVEPKSCDKTHTCPPCPAPEAAGGPSVFLFPPKPKDTLMISRTPEVTCVVVDVSHEDPEVKFNWYVDGVEVHNAKTKPREEQYASTYRVVSVLTVLHQDWLNGKEYKCKVSNKALPAPIEKTISKAKGQPREPQVYTLPPSRCELTKNQVSLSCAVKGFYPSDIAVEWESNGQPENNYKTTPPVLDSDGSFFLVSKLTVDKSRWQQGNVFSCSVMHEALHNHYTQKSLSLSPDYKDDDDK
light 2: DIVMTQSPLSLPVTPGEPASISCAASEELVHINRYIFLHWYQQKPGQAPRLLIYKVSNRFIGVPDRFSGSGSGTDFTLKISRVEAEDVGVYYCAQGSQVPFTFGQGTKLEIKRTVAAPSVFIFPPSDEQLKSGTASVVCLLNNFYPREAKVQWKVDNALQSGNSQESVTEQDSKDSTYSLSSTLTLSKADYEKHKVYACEVTHQGLSSPVTKSFNRGEC
B3: GPC3 ERY22-dBBDu_186/L106 (bispecific antibody, human IgG1, kappa, L234A L235A, N297A)
heavy 1: DIVMTQSPLSLPVTPGEPASISCRSSQSLVHSNRNTYLHWYQQKPGQAPRLLIYKVSNRFSGVPDRFSGSGSGTDFTLKISRVEAEDVGVYYCSQNTHVPPTFGQGTKLEIKSSASTKGPSVFPLAPSSKSTSGGTAALGCLVKDYFPEPVTVSWNSGALTSGVHTFPAVLQSSGLYSLSSVVTVPSSSLGTQTYICNVNHKPSNTKVDKKVEPKSCDKTHTCPPCPAPEAAGGPSVFLFPPKPKDTLMISRTPEVTCVVVDVSHEDPEVKFNWYVDGVEVHNAKTKPREEQYASTYRVVSVLTVLHQDWLNGKEYKCKVSNKALPAPIEKTISKAKGQPREPQVCTLPPSRDELTKNQVSLWCLVKGFYPSDIAVEWESNGQPENNYKTTPPVLDSDGSFFLYSKLTVDKSRWQQGNVFSCSVMHEALHNHYTQKSLSLSPHHHHHHHH
light 1: QVQLVQSGAEVKKPGASVKVSCKASGYTFTDYEMHWIRQPPGQGLEWIGAIDPKTGDTAYSQKFKGRVTLTADKSTSTAYMELSSLTSEDTAVYYCTRFYSYTYWGQGTLVTVSSASVAAPSVFIFPPSDEQLKSGTASVVCLLNNFYPREAKVQWKVDNALQSGNSQESVTEQDSKDSTYSLSSTLTLSKADYEKHKVYACEVTHQGLSSPVTKSFNRGEC
heavy 2: QVQLVESGGGLVQPGRSLRLSCAASGFTFSNAWMHWVRQAPGKGLEWVAQIKDRSNQYATYYAPSVKGRFTISRDDSKNSIYLQMNSLKTEDTAVYYCHYVHYAQASTVLPAFGVDAWGQGTTVTVSSASTKGPSVFPLAPSSKSTSGGTAALGCLVKDYFPEPVTVSWNSGALTSGVHTFPAVLQSSGLYSLSSVVTVPSSSLGTQTYICNVNHKPSNTKVDKKVEPKSCDKTHTCPPCPAPEAAGGPSVFLFPPKPKDTLMISRTPEVTCVVVDVSHEDPEVKFNWYVDGVEVHNAKTKPREEQYASTYRVVSVLTVLHQDWLNGKEYKCKVSNKALPAPIEKTISKAKGQPREPQVYTLPPSRCELTKNQVSLSCAVKGFYPSDIAVEWESNGQPENNYKTTPPVLDSDGSFFLVSKLTVDKSRWQQGNVFSCSVMHEALHNHYTQKSLSLSPDYKDDDDK
light 2: DIVMTQSPLSLPVTPGEPASISCSTSEELLHINRFIFLHWYQQKPGQAPRLLIYKVANRFMGVPDRFSGSGSGTDFTLKISRVEAEDVGVYYCAQGSQVPFTFGQGTKLEIKRTVAAPSVFIFPPSDEQLKSGTASVVCLLNNFYPREAKVQWKVDNALQSGNSQESVTEQDSKDSTYSLSSTLTLSKADYEKHKVYACEVTHQGLSSPVTKSFNRGEC

target: human CD137 on HDLM-2 cells (human, UniProt Q07011 24-255); test: cell-based or functional assay
Sequence (Q07011 24-255): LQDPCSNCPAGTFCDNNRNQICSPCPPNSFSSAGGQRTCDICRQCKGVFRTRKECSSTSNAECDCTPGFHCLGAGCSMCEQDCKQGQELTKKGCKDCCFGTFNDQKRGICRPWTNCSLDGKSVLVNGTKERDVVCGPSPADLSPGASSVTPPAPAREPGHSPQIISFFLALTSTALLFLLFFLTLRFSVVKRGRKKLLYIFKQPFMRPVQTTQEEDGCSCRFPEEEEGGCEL

In order of falling “Agonistic activity compared to B, antibody 6 ug/mL” value:
1. B1  19%
2. B2  13.9%
3. B3  13.2%

In order of falling “Agonistic activity compared to B, antibody 30 ug/mL” value:
1. B2  24.6%
2. B1  24.2%
3. B3  19.4%

In order of rising “Agonistic activity compared to Ctrl, antibody 6 ug/mL” value:
1. B3  45.8%
2. B2  48.3%
3. B1  66.1%

In order of falling “Agonistic activity compared to Ctrl, antibody 30 ug/mL” value:
1. B2  93.5%
2. B1  91.7%
3. B3  73.6%

In order of falling “hIL-6 (pg/mL), antibody 6 ug/mL” value:
1. B1  1680 pg/mL
2. B2  1500 pg/mL
3. B3  1480 pg/mL

In order of rising “hIL-6 (pg/mL), antibody 30 ug/mL” value:
1. B3  1570 pg/mL
2. B1  1740 pg/mL
3. B2  1750 pg/mL
